Tests used:
FGFR1 = FGFR1 (UniProt P11362); assay: phosphorylation enrichment, bacterial display (enrichment ratio); higher = better substrate or ligand; peptides without Tyr show the background
Hck = Hck (UniProt P08631); assay: as above
c-Abl (mouse) = assay: as above
EPHB2 = EPHB2 (UniProt P29323); assay: as above
FGFR3 = FGFR3 (UniProt P22607); assay: as above
c-Src = assay: as above
MERTK = MERTK (UniProt Q12866); assay: as above
Fyn = Fyn (UniProt P06241); assay: as above
Fes = Fes (UniProt P07332); assay: as above
Jak2 = Jak2 (UniProt O60674); assay: as above
AncSZ = assay: as above
EPHB1 = EPHB1 (UniProt P54762); assay: as above
Fer (mouse) = assay: as above
SHP2-C SH2 = assay: SH2 binding enrichment of the phosphorylated peptide, bacterial display (enrichment ratio); higher = better substrate or ligand; peptides without Tyr show the background
c-Src SH2 = assay: as above
Grb2 SH2 = Grb2 SH2 (UniProt P62993); assay: as above
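For SH2 binding enrichment of the phosphorylated peptide, bacterial display in this document: peptide library displayed on the E. coli surface as eCPX fusions, selected cells deep-sequenced, score is each peptide's frequency after selection divided by its frequency in the input.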
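For phosphorylation enrichment, bacterial display in this document: 11-residue human phosphosite peptides and single-mutation variants displayed on the E. coli surface, counted by deep sequencing, each peptide's frequency after selection divided by its frequency in the unselected input library; frequency after pTyr selection over input frequency; kinase dosed for 20-30% of maximal phosphorylation in three min.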

Chain of EPHB1 (P54762 whole entry, looked up): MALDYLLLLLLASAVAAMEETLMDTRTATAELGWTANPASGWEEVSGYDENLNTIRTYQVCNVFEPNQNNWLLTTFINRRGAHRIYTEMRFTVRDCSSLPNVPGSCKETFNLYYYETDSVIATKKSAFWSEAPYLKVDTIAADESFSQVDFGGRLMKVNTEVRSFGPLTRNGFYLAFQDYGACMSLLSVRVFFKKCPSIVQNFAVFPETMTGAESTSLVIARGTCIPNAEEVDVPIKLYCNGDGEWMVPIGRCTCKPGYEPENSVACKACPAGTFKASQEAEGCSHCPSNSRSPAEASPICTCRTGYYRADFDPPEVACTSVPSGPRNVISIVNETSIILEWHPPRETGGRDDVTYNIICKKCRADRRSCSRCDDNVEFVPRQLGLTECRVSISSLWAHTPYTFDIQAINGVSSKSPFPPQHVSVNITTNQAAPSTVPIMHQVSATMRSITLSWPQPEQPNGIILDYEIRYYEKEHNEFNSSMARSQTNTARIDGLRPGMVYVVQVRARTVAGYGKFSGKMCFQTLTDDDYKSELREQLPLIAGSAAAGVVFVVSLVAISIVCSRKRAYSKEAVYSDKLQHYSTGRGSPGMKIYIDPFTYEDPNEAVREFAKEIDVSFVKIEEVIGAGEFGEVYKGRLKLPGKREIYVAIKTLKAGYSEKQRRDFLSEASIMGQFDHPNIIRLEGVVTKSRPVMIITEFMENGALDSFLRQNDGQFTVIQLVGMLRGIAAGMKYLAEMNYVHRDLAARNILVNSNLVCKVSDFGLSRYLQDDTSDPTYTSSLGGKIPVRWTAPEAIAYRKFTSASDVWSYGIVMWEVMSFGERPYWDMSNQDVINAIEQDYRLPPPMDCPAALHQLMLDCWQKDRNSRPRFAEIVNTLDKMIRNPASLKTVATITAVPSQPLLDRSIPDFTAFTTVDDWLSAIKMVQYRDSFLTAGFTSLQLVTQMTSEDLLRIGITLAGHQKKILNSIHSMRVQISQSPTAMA
Chain of FGFR1 (P11362 whole entry, looked up): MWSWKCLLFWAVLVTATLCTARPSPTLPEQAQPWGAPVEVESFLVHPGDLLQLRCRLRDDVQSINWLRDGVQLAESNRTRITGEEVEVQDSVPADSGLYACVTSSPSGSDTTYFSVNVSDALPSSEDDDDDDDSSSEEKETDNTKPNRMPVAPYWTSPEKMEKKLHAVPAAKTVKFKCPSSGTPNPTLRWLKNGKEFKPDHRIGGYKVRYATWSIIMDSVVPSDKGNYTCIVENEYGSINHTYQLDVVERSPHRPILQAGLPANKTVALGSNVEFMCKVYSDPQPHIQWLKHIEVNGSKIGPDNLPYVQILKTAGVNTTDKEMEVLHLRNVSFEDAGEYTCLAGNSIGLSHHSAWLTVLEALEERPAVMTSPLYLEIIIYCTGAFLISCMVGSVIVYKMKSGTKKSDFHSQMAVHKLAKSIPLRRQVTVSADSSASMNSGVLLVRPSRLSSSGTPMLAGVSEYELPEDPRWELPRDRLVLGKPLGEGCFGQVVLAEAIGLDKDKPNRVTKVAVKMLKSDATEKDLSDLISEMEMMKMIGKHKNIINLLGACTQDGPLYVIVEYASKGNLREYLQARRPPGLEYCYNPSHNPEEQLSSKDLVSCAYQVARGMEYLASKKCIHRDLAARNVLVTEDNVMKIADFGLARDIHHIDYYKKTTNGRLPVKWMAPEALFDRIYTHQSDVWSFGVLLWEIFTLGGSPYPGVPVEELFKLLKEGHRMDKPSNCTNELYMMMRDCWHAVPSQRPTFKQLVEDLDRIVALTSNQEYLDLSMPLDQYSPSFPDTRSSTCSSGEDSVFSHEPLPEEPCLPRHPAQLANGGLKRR
Chain of MERTK (Q12866 whole entry, looked up): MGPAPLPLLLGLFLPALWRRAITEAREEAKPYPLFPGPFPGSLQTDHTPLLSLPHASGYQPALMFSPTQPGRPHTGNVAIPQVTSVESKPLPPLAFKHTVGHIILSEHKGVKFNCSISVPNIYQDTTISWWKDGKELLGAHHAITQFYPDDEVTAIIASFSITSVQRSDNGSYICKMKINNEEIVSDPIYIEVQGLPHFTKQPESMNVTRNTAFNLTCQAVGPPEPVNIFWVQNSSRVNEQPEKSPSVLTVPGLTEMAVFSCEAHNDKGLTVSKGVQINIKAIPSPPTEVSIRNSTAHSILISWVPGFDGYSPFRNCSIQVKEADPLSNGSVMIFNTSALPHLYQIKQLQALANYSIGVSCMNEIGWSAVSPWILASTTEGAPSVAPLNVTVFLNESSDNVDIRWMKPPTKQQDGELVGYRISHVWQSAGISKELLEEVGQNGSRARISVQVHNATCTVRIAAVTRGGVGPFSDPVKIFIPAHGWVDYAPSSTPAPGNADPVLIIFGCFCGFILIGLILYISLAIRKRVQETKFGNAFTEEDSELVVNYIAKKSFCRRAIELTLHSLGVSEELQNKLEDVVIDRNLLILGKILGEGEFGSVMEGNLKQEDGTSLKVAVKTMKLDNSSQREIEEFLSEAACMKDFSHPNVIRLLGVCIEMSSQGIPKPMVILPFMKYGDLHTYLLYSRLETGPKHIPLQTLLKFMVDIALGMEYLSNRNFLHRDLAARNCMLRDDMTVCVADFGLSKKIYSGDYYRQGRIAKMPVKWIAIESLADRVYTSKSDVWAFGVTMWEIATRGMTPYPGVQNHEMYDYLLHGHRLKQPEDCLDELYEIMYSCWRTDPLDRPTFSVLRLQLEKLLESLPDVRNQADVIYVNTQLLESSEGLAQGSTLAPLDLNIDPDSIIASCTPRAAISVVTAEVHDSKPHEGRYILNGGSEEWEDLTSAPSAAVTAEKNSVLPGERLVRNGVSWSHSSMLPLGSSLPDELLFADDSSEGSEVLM
Chain of Fes (P07332 whole entry, looked up): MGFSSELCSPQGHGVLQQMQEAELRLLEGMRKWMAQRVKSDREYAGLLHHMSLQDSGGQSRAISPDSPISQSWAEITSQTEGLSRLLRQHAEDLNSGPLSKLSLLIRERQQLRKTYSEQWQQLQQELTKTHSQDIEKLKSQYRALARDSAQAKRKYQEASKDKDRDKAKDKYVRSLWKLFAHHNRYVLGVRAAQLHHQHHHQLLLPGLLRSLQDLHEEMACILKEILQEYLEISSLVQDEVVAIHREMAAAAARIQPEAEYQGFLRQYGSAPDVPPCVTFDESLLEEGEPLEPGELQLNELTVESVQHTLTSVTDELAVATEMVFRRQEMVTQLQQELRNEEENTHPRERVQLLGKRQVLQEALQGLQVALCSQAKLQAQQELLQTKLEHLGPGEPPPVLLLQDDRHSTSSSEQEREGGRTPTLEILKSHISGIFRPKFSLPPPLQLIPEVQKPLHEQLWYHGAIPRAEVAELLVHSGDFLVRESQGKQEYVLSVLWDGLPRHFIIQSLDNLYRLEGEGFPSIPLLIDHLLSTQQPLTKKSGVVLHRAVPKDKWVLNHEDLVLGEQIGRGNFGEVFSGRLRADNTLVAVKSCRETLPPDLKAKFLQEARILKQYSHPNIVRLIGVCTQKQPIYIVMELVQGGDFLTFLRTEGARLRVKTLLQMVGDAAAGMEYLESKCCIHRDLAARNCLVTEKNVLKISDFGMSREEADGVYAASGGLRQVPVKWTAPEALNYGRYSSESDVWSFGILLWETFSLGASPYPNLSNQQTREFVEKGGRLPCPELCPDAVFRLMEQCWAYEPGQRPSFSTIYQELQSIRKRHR
Chain of FGFR3 (P22607 whole entry, looked up): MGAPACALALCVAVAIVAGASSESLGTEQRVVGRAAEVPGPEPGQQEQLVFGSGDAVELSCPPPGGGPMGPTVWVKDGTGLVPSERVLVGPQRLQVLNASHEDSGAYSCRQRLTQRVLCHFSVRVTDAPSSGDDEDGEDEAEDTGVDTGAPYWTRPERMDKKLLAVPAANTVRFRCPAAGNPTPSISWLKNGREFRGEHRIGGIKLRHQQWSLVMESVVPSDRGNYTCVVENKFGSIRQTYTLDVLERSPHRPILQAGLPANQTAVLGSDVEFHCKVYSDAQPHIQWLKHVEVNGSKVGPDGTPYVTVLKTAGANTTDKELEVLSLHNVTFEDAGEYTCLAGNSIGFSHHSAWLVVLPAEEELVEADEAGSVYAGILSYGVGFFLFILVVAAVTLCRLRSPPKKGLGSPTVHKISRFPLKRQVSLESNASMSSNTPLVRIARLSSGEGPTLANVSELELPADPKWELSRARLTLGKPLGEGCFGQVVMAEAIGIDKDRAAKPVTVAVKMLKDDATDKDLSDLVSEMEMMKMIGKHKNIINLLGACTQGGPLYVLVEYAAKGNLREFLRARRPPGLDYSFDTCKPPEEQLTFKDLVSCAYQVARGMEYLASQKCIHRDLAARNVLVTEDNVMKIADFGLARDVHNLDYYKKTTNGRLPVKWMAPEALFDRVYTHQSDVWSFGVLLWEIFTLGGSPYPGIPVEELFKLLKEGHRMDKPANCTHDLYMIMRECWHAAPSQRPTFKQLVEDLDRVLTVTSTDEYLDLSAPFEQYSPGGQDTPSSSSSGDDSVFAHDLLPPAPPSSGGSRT
Chain of Hck (P08631 whole entry, looked up): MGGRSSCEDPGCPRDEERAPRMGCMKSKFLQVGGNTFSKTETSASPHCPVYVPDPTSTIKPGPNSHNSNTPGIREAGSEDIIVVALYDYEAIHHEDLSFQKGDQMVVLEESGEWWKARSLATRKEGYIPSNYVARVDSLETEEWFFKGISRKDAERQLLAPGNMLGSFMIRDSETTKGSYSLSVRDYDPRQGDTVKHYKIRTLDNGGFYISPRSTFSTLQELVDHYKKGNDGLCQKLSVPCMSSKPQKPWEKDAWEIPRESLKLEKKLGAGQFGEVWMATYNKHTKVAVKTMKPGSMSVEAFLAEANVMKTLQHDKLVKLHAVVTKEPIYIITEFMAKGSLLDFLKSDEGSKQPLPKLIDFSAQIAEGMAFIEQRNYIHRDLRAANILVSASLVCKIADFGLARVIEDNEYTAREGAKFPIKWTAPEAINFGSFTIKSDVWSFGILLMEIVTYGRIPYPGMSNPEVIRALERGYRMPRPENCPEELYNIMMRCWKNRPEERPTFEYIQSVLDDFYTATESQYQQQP

| SH2 binding enrichment (SHP2-C SH2) | SH2 binding enrichment (c-Src SH2) | SH2 binding enrichment (Grb2 SH2) | Sequence | phosphorylation enrichment (FGFR1) | phosphorylation enrichment (Hck) | phosphorylation enrichment (c-Abl (mouse)) | phosphorylation enrichment (EPHB2) | phosphorylation enrichment (FGFR3) | phosphorylation enrichment (c-Src) | phosphorylation enrichment (MERTK) | phosphorylation enrichment (Fyn) | phosphorylation enrichment (Fes) | phosphorylation enrichment (Jak2) | phosphorylation enrichment (AncSZ) | phosphorylation enrichment (EPHB1) | phosphorylation enrichment (Fer (mouse)) |
| --- | --- | --- | --- | --- | --- | --- | --- | --- | --- | --- | --- | --- | --- | --- | --- | --- |
| 0.64 | 0.373 | 0.883 | SSEFHCVGGFF [CTSC_Y347_Y347C_YF] | 0.466 | 0.499 | 0.735 | 0.5 | 0.619 | 0.458 | 0.412 | 0.44 | 1.05 | 0.858 | 0.997 | 0.564 | 0.521 |
| 0.806 | 0.541 | 0.795 | SSENPCATIKD [MEGF10_Y1030_Y1030C] | 0.554 | 0.492 | 0.509 | 0.494 | 0.602 | 0.465 | 0.438 | 0.468 | 0.823 | 0.66 | 0.812 | 0.43 | 0.445 |
| 0.824 | 0.701 | 0.764 | SSFDTYHLSRE [KIR3DL2_Y253_I252T_YF] | 0.615 | 3.51 | 0.613 | 0.616 | 0.595 | 3.31 | 0.613 | 4.75 | 0.842 | 0.7 | 0.756 | 0.528 | 0.539 |
| 0.533 | 0.537 | 1 | SSQILYKLEQS [THADA_Y701_V699I] | 0.4 | 0.49 | 0.551 | 0.451 | 0.582 | 0.669 | 0.466 | 0.388 | 0.781 | 0.7 | 0.727 | 0.56 | 0.423 |
| 0.677 | 0.63 | 0.703 | SSRKEYFIGGG [GYPC_Y126] | 0.532 | 0.486 | 0.429 | 0.317 | 0.478 | 0.496 | 0.309 | 0.603 | 0.673 | 0.519 | 0.482 | 0.423 | 0.431 |
| 0.816 | 0.523 | 0.774 | SSVPDYLAAVD [GLB1_Y154_D151V] | 0.534 | 0.517 | 0.801 | 0.683 | 1.17 | 0.381 | 0.463 | 0.582 | 1.19 | 1.11 | 1.63 | 0.631 | 0.568 |
| 0.719 | 0.728 | 1.05 | SVAVPYEPPEV [TP53_Y220_V217A] | 0.595 | 0.565 | 0.823 | 0.626 | 0.944 | 0.551 | 0.493 | 0.486 | 1.31 | 1.1 | 1.31 | 0.614 | 0.529 |
| 0.827 | 0.485 | 0.632 | SVETPYVSVTF [NDRG2_Y47_G48V] | 0.897 | 0.662 | 0.844 | 0.629 | 0.936 | 2.05 | 0.47 | 0.784 | 1.19 | 1.1 | 1.26 | 0.632 | 1.56 |
| 0.633 | 0.76 | 0.862 | SVGGCYEQLFV [MC4R_Y41_D37V] | 0.791 | 1.46 | 1.22 | 0.661 | 0.972 | 1.24 | 0.826 | 0.982 | 1.42 | 1.14 | 1.51 | 1.02 | 7.02 |
| 0.626 | 0.608 | 0.786 | SVMVPYEPPEV [TP53_Y220_V217M] | 0.52 | 0.496 | 0.804 | 0.54 | 0.662 | 0.465 | 0.433 | 0.481 | 1.15 | 1.09 | 1.04 | 0.515 | 0.56 |
| 0.625 | 0.388 | 0.796 | SVTCTGSPALN [TP53_Y126_Y126G] | 0.422 | 0.459 | 0.612 | 0.487 | 0.511 | 0.387 | 0.385 | 0.422 | 0.972 | 0.741 | 0.792 | 0.539 | 0.423 |
| 1.35 | 1.19 | 1.24 | SVTCTYCPALN [TP53_Y126_S127C] | 0.564 | 0.495 | 0.683 | 0.413 | 0.46 | 0.581 | 0.611 | 0.545 | 0.779 | 0.629 | 0.84 | 0.38 | 0.394 |
| 0.612 | 0.611 | 0.962 | SVVVLYEPPEV [TP53_Y220_P219L] | 0.588 | 1.42 | 1.19 | 11 | 0.738 | 0.701 | 3.56 | 0.59 | 1.15 | 1.06 | 1.72 | 4.88 | 5.4 |
| 0.886 | 0.571 | 1.02 | SVVVPCEPPEV [TP53_Y220_Y220C] | 0.517 | 0.517 | 0.834 | 0.671 | 0.678 | 0.481 | 0.459 | 0.438 | 1.18 | 1.04 | 0.998 | 0.534 | 0.525 |
| 0.787 | 1.11 | 0.81 | SVVVPYEPAEV [TP53_Y220_P223A] | 0.566 | 0.498 | 0.708 | 0.689 | 0.719 | 0.539 | 0.488 | 0.433 | 1.18 | 1.1 | 1.09 | 0.704 | 0.596 |
| 0.598 | 2.45 | 0.849 | SVVVPYEPLEV [TP53_Y220_P223L] | 0.531 | 0.533 | 0.697 | 0.602 | 0.836 | 0.46 | 0.489 | 0.587 | 1.23 | 0.947 | 1.19 | 0.562 | 0.934 |
| 1.23 | 0.651 | 0.957 | SWDKRYCEAGC [ITGA2B_Y197_F202C] | 0.507 | 0.417 | 0.984 | 0.41 | 0.541 | 0.357 | 0.401 | 0.454 | 0.887 | 0.641 | 0.859 | 0.446 | 0.383 |

| SH2 binding enrichment (SHP2-C SH2) | SH2 binding enrichment (c-Src SH2) | SH2 binding enrichment (Grb2 SH2) | Sequence | phosphorylation enrichment (FGFR1) | phosphorylation enrichment (Hck) | phosphorylation enrichment (c-Abl (mouse)) | phosphorylation enrichment (EPHB2) | phosphorylation enrichment (FGFR3) | phosphorylation enrichment (c-Src) | phosphorylation enrichment (MERTK) | phosphorylation enrichment (Fyn) | phosphorylation enrichment (Fes) | phosphorylation enrichment (Jak2) | phosphorylation enrichment (AncSZ) | phosphorylation enrichment (EPHB1) | phosphorylation enrichment (Fer (mouse)) |
| --- | --- | --- | --- | --- | --- | --- | --- | --- | --- | --- | --- | --- | --- | --- | --- | --- |
| 0.642 | 0.47 | 0.753 | TDGIAYEFRVI | 0.507 | 0.655 | 0.854 | 0.603 | 0.852 | 0.527 | 0.495 | 0.514 | 1.34 | 1.32 | 1.46 | 0.659 | 0.843 |
| 0.924 | 0.504 | 0.849 | TDTAAYEERLR [SPTB_Y474_V478L] | 0.668 | 0.516 | 0.48 | 0.648 | 0.71 | 0.478 | 0.482 | 0.67 | 0.914 | 0.742 | 0.936 | 0.49 | 0.458 |
| 0.73 | 1.22 | 0.893 | TEAEPYYCSLR [NPHS1_Y1138_R1140C] | 1.49 | 4.2 | 1.18 | 1.43 | 1.47 | 3.96 | 2.78 | 4.22 | 1.5 | 1.4 | 1.81 | 1.5 | 1.8 |
| 0.711 | 1.48 | 0.952 | TEQDPYNSIVR [MMUT_Y364_N366S] | 0.697 | 0.551 | 0.661 | 0.616 | 0.665 | 0.593 | 0.4 | 0.494 | 1.01 | 0.889 | 1.03 | 0.496 | 0.488 |
| 0.916 | 0.552 | 0.82 | TESALYGCTVL [KIAA1804_Y724] | 0.559 | 4.05 | 1.04 | 0.885 | 1.15 | 4.74 | 1.46 | 5.57 | 1.27 | 1.12 | 1.13 | 0.686 | 4.71 |
| 1.65 | 0.523 | 0.738 | TESNNYIYKTL [FAM83B_Y637] | 0.625 | 0.99 | 0.559 | 0.44 | 0.64 | 1.28 | 0.535 | 1.31 | 0.696 | 0.63 | 0.729 | 0.483 | 0.512 |
| 0.8 | 0.579 | 0.752 | TESNNYIYTTL [FAM83B_Y637_K640T] | 2.74 | 7.3 | 0.692 | 1.15 | 1.92 | 7.09 | 5.09 | 8.53 | 0.898 | 0.774 | 1.03 | 2.3 | 2.64 |
| 0.96 | 0.584 | 1.08 | TFEFRYLEDRD [CNOT3_Y746_YF] | 0.599 | 0.67 | 0.762 | 0.756 | 0.826 | 0.591 | 0.398 | 0.686 | 1.37 | 1.17 | 1.35 | 0.676 | 0.606 |
| 0.454 | 0.591 | 0.995 | TFLRTYTDTMQ [TSPAN7_Y124_A127T] | 0.486 | 0.403 | 0.69 | 0.491 | 0.497 | 0.425 | 0.391 | 0.464 | 0.76 | 0.687 | 0.68 | 0.527 | 0.501 |
| 0.619 | 0.425 | 0.747 | TGDFGYRAPGY [TNS2_Y668] | 0.415 | 0.376 | 0.533 | 0.413 | 0.435 | 0.441 | 0.31 | 0.477 | 0.546 | 0.557 | 0.545 | 0.387 | 0.332 |
| 0.552 | 0.383 | 0.746 | TGVWDYIHVVD [GALE_Y241_R239W] | 0.684 | 0.566 | 0.966 | 0.588 | 0.916 | 0.471 | 0.433 | 0.47 | 1.43 | 1.39 | 1.43 | 0.756 | 0.493 |
| 0.552 | 0.611 | 0.797 | TGYRPYVCPFD [YY1_Y383_D380Y] | 0.621 | 0.525 | 0.808 | 0.706 | 0.951 | 0.412 | 0.551 | 0.583 | 1.33 | 1.04 | 1.16 | 0.753 | 0.574 |
| 0.719 | 0.597 | 0.863 | TKEPKYEGAGS [KIAA1210_Y1615] | 0.403 | 0.372 | 0.496 | 0.337 | 0.385 | 0.315 | 0.326 | 0.339 | 0.542 | 0.5 | 0.614 | 0.368 | 0.378 |
| 0.912 | 0.558 | 1.12 | TKVVHYRKWIK [KLK2_Y249] | 0.375 | 0.443 | 0.462 | 0.318 | 0.432 | 0.595 | 0.379 | 0.382 | 0.614 | 0.415 | 0.632 | 0.483 | 0.373 |
| 0.866 | 0.462 | 0.907 | TLLERYGMTEI [ACSF3_Y355] | 0.404 | 0.392 | 0.516 | 0.516 | 0.564 | 0.418 | 0.342 | 0.387 | 0.863 | 0.565 | 0.621 | 0.415 | 0.42 |
| 1.52 | 7.18 | 0.9 | TLNVRYESVQA [CEACAM7_Y236] | 0.451 | 0.487 | 0.504 | 0.415 | 0.617 | 0.415 | 0.371 | 0.434 | 0.745 | 0.755 | 0.757 | 0.44 | 0.59 |

From the supplement of paper PMC10065799, “High-throughput profiling of sequence recognition by tyrosine kinases and SH2 domains using bacterial peptide display” (eLife, 2023)
